Reference: the supplement of paper PMC10201428
± gives the standard deviation of the averaged measurements.

B1: library; a variant is named by its letters at N, in order (parent)
chain: AATGTTGTTGATGCAACCATAAAGTGATATTTAATAATTATTTATAATCAGCAACTTAACCACAAAACAACCATATATTGATATNTCACAAAACAACCATAANTTGATATTTTTGTGAATCGAGTATTTCAGCAAAACTACTGCAGTAAGAA

Key:
[1] = variants of: B1; test: relative integration efficiency (T-LR orientation) vs wild-type transposon end (log2 (normalized fold change)); transposon end mutated: left end; higher = more efficient transposition; conditions: with VchCAST RNA-guided transposition machinery (E. coli BL21(DE3) host, lacZ target)
Protocol: (§1)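 Pooled, barcoded VchCAST (Tn6677) mini-transposon donor libraries; each variable transposon-end sequence sits in a fixed pDonor mini-transposon context (10-bp barcode and cargo not included). Left- or right-end libraries were co-transformed with pEffector (TniQ-Cascade, TnsABC, lacZ crRNA, T7, 0.1 mM IPTG) into E. coli BL21(DE3) and grown 18 h at 37 C. T-LR and T-RL junction amplicons were sequenced; output/input barcode fold change was normalised to the mean of four wild-type barcodes and log2-transformed. Two biological replicates; zero-count/undetected variants carry floor values (-10 / -15), censored here. Barcode uncoupling by PCR recombination adds noise.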

[2] = variants of: B1; test: relative integration efficiency (T-RL orientation) vs wild-type transposon end (log2 (normalized fold change)); transposon end mutated: left end; higher = more efficient transposition; conditions: with VchCAST RNA-guided transposition machinery (E. coli BL21(DE3) host, lacZ target)
Protocol: as §1

Variant	relative integration efficiency (log2) [1]	relative integration efficiency (log2) [2]
AATGTTGTTGATGCAACCATAAAGTGATATTTAATATATATTTATAATCAGCAACTTAACCACAAAACAACCATATATTGATATCTCACAAAACAACCATAAGTTGATATTTTTGTGAATCGAGTATTTCAGCAAAACTACTGCAGTAAGAA [CG A37T T38A]	0.156 ± 0.25	0.191 ± 0.1
AATGTTGTTGATGCAACCATAAAGTGATATTTAATAATTCGGGATAATCAGCAACTTAACCACAAAACAACCATATATTGATATCTCACAAAACAACCATAAGTTGATATTTTTGTGAATCGAGTATTTCAGCAAAACTACTGCAGTAAGAA [CG A40C T41G T42G T43G]	-0.1 ± 0.062	0.139 ± 0.11
AATGTTGTTGATGCAACCATAAAGTGATATTTAATAATTCGTTATAATCAGCAACTTAACCACAAAACAACCATATATTGATATCTCACAAAACAACCATAAGTTGATATTTTTGTGAATCGAGTATTTCAGCAAAACTACTGCAGTAAGAA [CG A40C T41G]	0.224 ± 0.022	-0.0298 ± 0.00035
AATGTTGTTGATGCAACCATAAAGTGATATTTAATAATTATTTCTAATCAGCAACTTAACCACAAAACAACCATATATTGATATCTCACAAAACAACCATAAGTTGATATTTTTGTGAATCGAGTATTTCAGCAAAACTACTGCAGTAAGAA [CG A44C]	-0.0239 ± 0.24	0.147 ± 0.068
AATGTTGTTGATGCAACCATAAAGTGATATTTAATAATTATTTGTAATCAGCAACTTAACCACAAAACAACCATATATTGATATCTCACAAAACAACCATAAGTTGATATTTTTGTGAATCGAGTATTTCAGCAAAACTACTGCAGTAAGAA [CG A44G]	0.0745 ± 0.29	0.155 ± 0.065
AATGTTGTTGATGCAACCATAAAGTGATATTTAATAATTATTTCGAATCAGCAACTTAACCACAAAACAACCATATATTGATATCTCACAAAACAACCATAAGTTGATATTTTTGTGAATCGAGTATTTCAGCAAAACTACTGCAGTAAGAA [CG A44C T45G]	0.0152 ± 0.65	-0.0735 ± 0.14
AATGTTGTTGATGCAACCATAAAGTGATATTTAATAATTATTTCGCCTCAGCAACTTAACCACAAAACAACCATATATTGATATCTCACAAAACAACCATAAGTTGATATTTTTGTGAATCGAGTATTTCAGCAAAACTACTGCAGTAAGAA [CG A44C T45G A46C A47C]	0.0873 ± 0.37	-0.21 ± 0.22
AATGTTGTTGATGCAACCATAAAGTGATATTTAATAATTTAAAATAATCAGCAACTTAACCACAAAACAACCATATATTGATATCTCACAAAACAACCATAAGTTGATATTTTTGTGAATCGAGTATTTCAGCAAAACTACTGCAGTAAGAA [CG A40T T41A T42A T43A]	0.256 ± 0.21	0.0403 ± 0.12
AATGTTGTTGATGCAACCATAAAGTGATATTTAATAATTTATTATAATCAGCAACTTAACCACAAAACAACCATATATTGATATCTCACAAAACAACCATAAGTTGATATTTTTGTGAATCGAGTATTTCAGCAAAACTACTGCAGTAAGAA [CG A40T T41A]	-0.491 ± 0.97	-0.0047 ± 0.075
AATGTTGTTGATGCAACCATAAAGTGATATTTAATAATTCTTTATAATCAGCAACTTAACCACAAAACAACCATATATTGATATCTCACAAAACAACCATAAGTTGATATTTTTGTGAATCGAGTATTTCAGCAAAACTACTGCAGTAAGAA [CG A40C]	-0.351 ± 0.61	-0.0674 ± 0.033
AATGTTGTTGATGCAACCATAAAGTGATATTTAATAATTGTTTATAATCAGCAACTTAACCACAAAACAACCATATATTGATATCTCACAAAACAACCATAAGTTGATATTTTTGTGAATCGAGTATTTCAGCAAAACTACTGCAGTAAGAA [CG A40G]	0.0123 ± 0.78	-0.273 ± 0.0094
AATGTTGTTGATGCAACCATAAAGTGATATTTAATAATTTTTTATAATCAGCAACTTAACCACAAAACAACCATATATTGATATCTCACAAAACAACCATAAGTTGATATTTTTGTGAATCGAGTATTTCAGCAAAACTACTGCAGTAAGAA [CG A40T]	0.577 ± 0.12	0.279 ± 0.021
AATGTTGTTGATGCAACCATAAAGTGATATTTAATAGTTATTTATAATCAGCAACTTAACCACAAAACAACCATATATTGATATCTCACAAAACAACCATAAGTTGATATTTTTGTGAATCGAGTATTTCAGCAAAACTACTGCAGTAAGAA [CG A37G]	0.434 ± 0.033	0.146 ± 0.027
AATGTTGTTGATGCAACCATAAAGTGATATTTAATATTTATTTATAATCAGCAACTTAACCACAAAACAACCATATATTGATATCTCACAAAACAACCATAAGTTGATATTTTTGTGAATCGAGTATTTCAGCAAAACTACTGCAGTAAGAA [CG A37T]	0.0565 ± 0.29	-0.0666 ± 0.052
AATGTTGTTGATGCAACCATAAAGTGATATTTAATACTTATTTATAATCAGCAACTTAACCACAAAACAACCATATATTGATATCTCACAAAACAACCATAAGTTGATATTTTTGTGAATCGAGTATTTCAGCAAAACTACTGCAGTAAGAA [CG A37C]	0.0561 ± 0.13	-0.222 ± 0.0095
AATGTTGTTGATGCAACCATAAAGTGATATTTAATACGGCTTTATAATCAGCAACTTAACCACAAAACAACCATATATTGATATCTCACAAAACAACCATAAGTTGATATTTTTGTGAATCGAGTATTTCAGCAAAACTACTGCAGTAAGAA [CG A37C T38G T39G A40C]	0.21 ± 0.43	-0.0337 ± 0.1
AATGTTGTTGATGCAACCATAAAGTGATATTTAATACGTATTTATAATCAGCAACTTAACCACAAAACAACCATATATTGATATCTCACAAAACAACCATAAGTTGATATTTTTGTGAATCGAGTATTTCAGCAAAACTACTGCAGTAAGAA [CG A37C T38G]	-0.172 ± 0.0031	-0.236 ± 0.044
AATGTTGTTGATGCAACCATAAAGTGATATTTAATAATTGTGAGCGGATAACAACTTAACCACAAAACAACCATATATTGATATCTCACAAAACAACCATAAGTTGATATTTTTGTGAATCGAGTATTTCAGCAAAACTACTGCAGTAAGAA [CG A40G T42G T43A A44G T45C A46G A47G T48A C49T G51A]	-1.07 ± 0.8	-1.29 ± 0.32
AATGTTGTTGATGCAACCATAAAGTGATATTTAATATAATTTTATAATCAGCAACTTAACCACAAAACAACCATATATTGATATCTCACAAAACAACCATAAGTTGATATTTTTGTGAATCGAGTATTTCAGCAAAACTACTGCAGTAAGAA [CG A37T T38A T39A A40T]	0.186 ± 0.28	0.137 ± 0.049
